Results taken from the supplement of paper PMC10567573.
± gives the standard deviation.

Experiment: protein stability index of a GFP-peptide fusion (GPS, HEK-293T) (PSI 1-6); higher = more stable
[1] = treatment: DMSO, c terminus: a fixed tail appended
[2] = treatment: MLN4924 1 uM, 8 h, c terminus: a fixed tail appended
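Further: 24-mer peptide tiles fused after GFP, lentivirally expressed, FACS-sorted into six equal bins by GFP/DsRed ratio, decoded by Illumina sequencing, PSI is the read-weighted mean bin number.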

Row | Sequence | protein stability index [1] | protein stability index [2] | protein stability index (treatment: DMSO, c terminus: native) | protein stability index (treatment: MLN4924 1 uM, 8 h, c terminus: native)
1 | LQLSEFLCEEFRNRNQRIVQLIQD [CPN1] | 2.56 ± 0.25 | 2.71 ± 0.39 | – | –
2 | VPQPARMPYISDKHPRQTLEVINL [KLHL20] | 2.88 ± 0.2 | 3.2 ± 0.31 | – | –
3 | GSKEGNHHSTQPKRNKRNPIFQDS [FAM104B] | 4.57 ± 0.21 | 4.55 ± 0.3 | – | –
4 | TITMAHLLAAREDLSKIIRTSSGT [FAM98B] | 2.31 ± 0.33 | 2.38 ± 0.4 | – | –
5 | EHAIAEAQKNMYFKTRLKCPRSLS [ZNF396] | 3.26 ± 0.23 | 3.53 ± 0.3 | – | –
6 | DVVNYFRTVGFEEQASAFQEQEID [SAMD13] | 3.44 ± 0.28 | 3.88 ± 0.44 | – | –
7 | FETMAIEIEQLLARLTGVNDKMAE [GOSR1] | 3.06 ± 0.2 | 3.15 ± 0.38 | – | –
8 | SLLTNWPSVPPTIKEEENSEEELA [MYBL2] | 5.41 ± 0.26 | 5.28 ± 0.28 | – | –
9 | AAVLQYASLVGQKCSERMLLFRN [ATE1] | – | – | 2.38 ± 0.043 | 2.27 ± 0.33
10 | VRSGAWHFSFNVKFYPPDPAQLSE [EPB41L3] | 1.98 ± 0.61 | 2.53 ± 0.18 | – | –
11 | QKPEFQDLSVEERSFVEKHRWPSN [RHOBTB3] | 4.08 ± 0.34 | 4.04 ± 0.17 | – | –
12 | TMTNYDEAAMAIASLNGYRLGERV [ELAVL3] | 3 ± 0.35 | 3.17 ± 0.31 | – | –
13 | CTSRIFVQKSIYSEFLKRFVEATR [ALDH8A1] | 2.36 ± 0.52 | 2.34 ± 0.5 | – | –
14 | PSLLELAWEKLLAAFPNLANLSRT [KLHDC10] | 2.56 ± 0.21 | 2.55 ± 0.24 | – | –
15 | DESAIDFSAYIDSMAAVPTLELCH [CEBPD] | 3.17 ± 0.26 | 3.31 ± 0.17 | – | –
16 | CCHRSQKGFPGCKLGLHDNHWVPA [FBXO34] | 2.2 ± 0.39 | 2.16 ± 0.34 | – | –
17 | NFGEFKCSDSDKKCHLWTAMDLGF [CLCN6] | 2.19 ± 0.32 | 2.34 ± 0.46 | – | –
18 | YLILALLSVTISFRIYKSVIQAVQ [RTN3] | 3.42 ± 0.42 | 2.99 ± 0.48 | – | –
19 | RRVHLTEDQWGKGTLTPRMTTDFD [TRIM9] | 3.92 ± 0.13 | 4 ± 0.18 | – | –
20 | SADMDESDEDDEEERRRRVFDVPI [FBXO3] | 5.32 ± 0.18 | 5.35 ± 0.11 | – | –
21 | ESKKHQVETAFERLQQELEQQRCL [TRIM15] | 4.61 ± 0.31 | 4.53 ± 0.12 | – | –
22 | YCKPTRLDLLLDMPPVSYDVQLLH [SPSB1] | 2.2 ± 0.23 | 2.14 ± 0.33 | – | –
23 | LMSDLRRKRTAHERAKELYSSGEF [INTS4] | 3.54 ± 0.19 | 3.65 ± 0.1 | – | –

Row | Sequence | protein stability index [1] | protein stability index [2] | protein stability index (treatment: DMSO, c terminus: native) | protein stability index (treatment: MLN4924 1 uM, 8 h, c terminus: native)
24 | ESLSSQLSNLQKESRACLERIQEL [LMNB1] | 4.28 ± 0.14 | 4.38 ± 0.13 | – | –
25 | TSEDLRLQCDAVNLAFGRRCEELE [TEKT4] | 4.51 ± 0.32 | 4.71 ± 0.29 | – | –
26 | SKARTKSLLGDDVFSTMAGLEEAD [FBF1] | 4.87 ± 0.29 | 5.05 ± 0.2 | – | –
27 | EQLFFVRLVGKTPIETLIRDMLLS [NR2F2] | 2.56 ± 0.47 | 2.42 ± 0.61 | – | –
28 | YQLPQMPDVVVRSFMTWLRSYIKL [MED27] | 2.01 ± 0.13 | 2.25 ± 0.21 | – | –
29 | LKNNETLVQHGVKPQEIVQVEIFS [IQUB] | 2.82 ± 0.54 | 2.98 ± 0.7 | – | –
30 | FIVLFLLWPFAWLQVAGLSEEQLQ [LPCAT4] | 2.65 ± 0.13 | 3.05 ± 0.59 | – | –
31 | RLLVGLALATLRVLRGLARPEHPP [TMEM175] | 2.02 ± 0.42 | 2.35 ± 0.43 | – | –
32 | RSRKVSCPLTRSNGDLSRSLSPSP [FCHO1] | 4.04 ± 0.45 | 4.08 ± 0.15 | – | –
33 | LKISPVTLKEAYVQKLVKVCTDTD [TENT5C] | 2.94 ± 0.16 | 2.91 ± 0.14 | – | –
34 | VDDLKGSLKEDLTQHKFICEQCGK [SPRY1] | 5.03 ± 0.3 | 4.88 ± 0.26 | – | –
35 | EDYGHWLLCLRAVTHREGAPPLPG [PLEKHN1] | 2 ± 0.14 | 2.16 ± 0.26 | – | –
36 | EPCGPGKSKLTYMCRVDLRGHMPE [DLC1] | 2.45 ± 0.29 | 2.11 ± 0.52 | – | –
37 | CIGLQNLKLLDELPIAKVMKDYLK [ASB7] | 2.11 ± 0.28 | 2.27 ± 0.39 | – | –
38 | NHEALRQAKQEMNESRRQIQSLTC [PRPH] | 4.47 ± 0.18 | 4.38 ± 0.15 | – | –
39 | QAPPVPGPPPGAPHTPQTPGQGGP [NR2F2] | 5.22 ± 0.56 | 5.05 ± 0.38 | – | –
40 | YTSSQKVSPIQIDGAGRTWQDSDT [TOR1AIP2] | 3.62 ± 0.36 | 4.2 ± 0.51 | – | –
41 | QQQRQRPPRPPPRGTPPRRHSFRK [N4BP2L1] | 4.44 ± 0.16 | 4.75 ± 0.26 | – | –
42 | VNAVLTQIDQIKRHSNVVILTTSN [TRIP13] | 1.92 ± 0.46 | 1.95 ± 0.24 | – | –
43 | QEVLSLRRENSTLDVECHEKEKHV [SASS6] | 5.2 ± 0.38 | 5.52 ± 0.4 | – | –
44 | SLRIALSEHLKQRREVAKTVFCLV [EDNRA] | 1.93 ± 0.34 | 2.26 ± 0.3 | – | –
45 | EEIPVVICAAAGRMGATMAAINSI [GLT8D2] | 2.48 ± 0.52 | 2.22 ± 0.21 | – | –
46 | DNAIMLFSPDFTLRNTLKSTSEDS [FAN1] | 4.22 ± 0.34 | 4.2 ± 0.5 | – | –

Row | Sequence | protein stability index [1] | protein stability index [2] | protein stability index (treatment: DMSO, c terminus: native) | protein stability index (treatment: MLN4924 1 uM, 8 h, c terminus: native)
47 | RNGMASEGLNSSLCSPGHERRGTP [PSD2] | 4.72 ± 0.34 | 4.61 ± 0.28 | – | –
48 | QQCVDKESSLGSESEEEEEFYDAD [SLC22A15] | 5.52 ± 0.45 | 5.33 ± 0.33 | – | –
49 | DVQLLHSWNNNDRSLNVFVKEDDK [SPSB1] | 4.88 ± 0.14 | 4.97 ± 0.18 | – | –
50 | EQIAERKRKMVSWEASSLGLVTAA [KMT2E] | 2.65 ± 0.45 | 3.33 ± 0.76 | – | –
51 | RVDVDTYLTSQLPPLREIILGPSS [NFE2L1] | 2.67 ± 0.46 | 2.67 ± 0.35 | – | –
52 | YPTTLGKDRECQSQSLALKEQNNL [ZNF8] | 4.39 ± 0.16 | 4.52 ± 0.19 | – | –
53 | GLKADTLKERYQKIGDTKRNTPIE [CSNK1G1] | 4.36 ± 0.26 | 4.53 ± 0.12 | – | –
54 | QSQLSMKAGLENSLAETECRYATQ [KRT15] | 4.38 ± 0.23 | 4.46 ± 0.17 | – | –
55 | NHEQEVNTLRCQLGDRLNVEVDAA [KRT33B] | 4.94 ± 0.11 | 5.16 ± 0.22 | – | –
56 | EHSHRSHHSLASSLRSHHTHPSYG [DVL3] | 3.48 ± 0.25 | 3.56 ± 0.19 | – | –
57 | GELRRRPGDMKTKMELLILETQAQ [CPOX] | 3.34 ± 0.18 | 3.43 ± 0.26 | – | –
58 | GSSGSYFVKDPQGRIIAVFKPKNE [PI4K2A] | 3.34 ± 0.16 | 3.66 ± 0.12 | – | –
59 | WCDGCKNHIGMGVRYNAEKKKVGN [YJU2B] | 3.67 ± 0.34 | 3.65 ± 0.32 | – | –
60 | FCREEMGEVLKSSTFSSGPSDKMK [SPOPL] | 3.53 ± 0.41 | 3.69 ± 0.23 | – | –
61 | LFLPCLLCYPPAKGCLKLCRRCYD [SPRY1] | 2.36 ± 0.19 | 2.45 ± 0.62 | – | –
62 | FHPDPRQKALYRRLATVHMSRMIN [CLPTM1] | 2.58 ± 0.55 | 2.39 ± 0.25 | – | –
63 | KPANILLDAHYHVKISDFGLAKCN [RIPK4] | 2.33 ± 0.22 | 2.49 ± 0.23 | – | –
64 | SSCFFIESCGAQVPVEGSRRETSI | 3 ± 0.38 | 2.79 ± 0.033 | – | –
65 | LSDFGLCTGLKKAHRTEFYRNLTH [STK38L] | 2.41 ± 0.6 | 2.2 ± 0.27 | – | –
66 | LPSWAELLRPKYRAPQGCSGVDEC [PBXIP1] | 2.83 ± 0.11 | 2.69 ± 0.46 | – | –
67 | ENHQPVSLSDLEIQASAGVISKKA [ZNF75A] | 4.94 ± 0.19 | 4.98 ± 0.39 | – | –
68 | FRKEIKSKSADNQEYFERHRWPPV [RHOBTB1] | 3.45 ± 0.44 | 3.26 ± 0.16 | – | –
69 | ADVWSLGVMLYTLLVGRYPFHDSD [TRIB1] | 3.15 ± 0.26 | 2.58 ± 0.26 | – | –

Row | Sequence | protein stability index [1] | protein stability index [2] | protein stability index (treatment: DMSO, c terminus: native) | protein stability index (treatment: MLN4924 1 uM, 8 h, c terminus: native)
70 | RRDYLLLVMEGTDDGRLLEYDTVT [APMAP] | 2.26 ± 0.32 | 2.72 ± 0.13 | – | –
71 | KKKRPPQPPEESQPPQSQAQVPPA [PLK2] | 5.35 ± 0.23 | 5.46 ± 0.14 | – | –
72 | TSSSDDDEEVSGSSKTITAEIPDG [C18orf25] | 5.59 ± 0.19 | 5.49 ± 0.23 | – | –
73 | VLFTSDACGLSDVAHVESLQEKSQ [NR2F2] | 3.93 ± 0.26 | 4.04 ± 0.28 | – | –
74 | TFILKNPPENSDSGTGKKEKEKKN [EIF5] | 4.94 ± 0.3 | 5.137 ± 0.05 | – | –
75 | AYFAGNQKQLEQTLQQFNIKLRPP [ARFIP2] | 2.63 ± 0.16 | 2.76 ± 0.29 | – | –
76 | RLKLLKDREVDAATSATSHTRSLN [FBF1] | 4.31 ± 0.32 | 4.41 ± 0.16 | – | –
77 | TAGLKIFEPPAPGEGNSSQNSRNK [TNFSF13B] | 5.2 ± 0.22 | 5.24 ± 0.15 | – | –
78 | QGRFCTIFRSYSRGAQGILLVYDI [RAB40C] | 2.74 ± 0.61 | 3.1 ± 0.64 | – | –
79 | SNKSLVEALGLEAEGAVPETQTLT [RHOBTB1] | 5.09 ± 0.26 | 5.16 ± 0.36 | – | –
80 | SWASAQVQILCHTYWEHWTSQGQV [RTP4] | 2.8 ± 0.74 | 2.77 ± 0.75 | – | –
81 | DHDPTIEDAYKIRIRIDDEPANLD [RIT1] | 4.86 ± 0.19 | 4.84 ± 0.21 | – | –
82 | FLSSEKQICGTHRQTKKMFCDMDK [TRIM43] | 3.18 ± 0.33 | 3.4 ± 0.19 | – | –
83 | VIDLFDEQGLSALHLAAQGRHAQT [RIPK4] | 3.05 ± 0.35 | 2.87 ± 0.14 | – | –
84 | KSSAQGPIPWFLPESRSLPSSPLR [PPEF2] | 3.56 ± 0.53 | 3.56 ± 0.21 | – | –
85 | LTGLQLKLGPALKIYEYHVKPLQT [SAMD13] | 2.26 ± 0.29 | 2.47 ± 0.42 | – | –
86 | PPLRVIVKDALFCSCLSDILRFIY [RHOBTB3] | 2.78 ± 0.16 | 2.84 ± 0.27 | – | –
87 | DFHQGLLSFYNARTKQVLHTFKTR [FSD1] | 2.2 ± 0.16 | 2.28 ± 0.31 | – | –
88 | HFPYDLHLRSQSLTMQDELNAVFH [NEUROD6] | 2.81 ± 0.19 | 2.92 ± 0.27 | – | –
89 | PEDLQTDLAKLVDQQNPTLGETPE [ZNF449] | 5.62 ± 0.23 | 5.73 ± 0.2 | – | –
